In publication PMC7755208, “Design of novel granulopoietic proteins by topological rescaffolding” (PLoS Biology, 2020):

Columns and labels:
[1] = target: T1, recombinant human G-CSF receptor (R&D systems 381-GR-050/CF) (human, UniProt Q99062 25-333); assay: SPR; Biacore X100, multi-cycle kinetics; G-CSFR immobilised on a CM5 chip by amine coupling; analytes in 10 mM HEPES pH 7.4, 150 mM NaCl, 3.4 mM EDTA, 0.005% Tween-20; 25°C, 30 uL/min; 1:1 model, ka and kd from a linear fit of kobs against concentration; conditions: both partners purified
T1 construct: granulocyte colony-stimulating factor receptor, human, recombinant; As recalled, this catalogue item is a soluble extracellular form of the receptor; also called rhG-CSFR; granulocyte colony-stimulating factor receptor; source: bought: R&D systems 381-GR-050/CF
T1 sequence: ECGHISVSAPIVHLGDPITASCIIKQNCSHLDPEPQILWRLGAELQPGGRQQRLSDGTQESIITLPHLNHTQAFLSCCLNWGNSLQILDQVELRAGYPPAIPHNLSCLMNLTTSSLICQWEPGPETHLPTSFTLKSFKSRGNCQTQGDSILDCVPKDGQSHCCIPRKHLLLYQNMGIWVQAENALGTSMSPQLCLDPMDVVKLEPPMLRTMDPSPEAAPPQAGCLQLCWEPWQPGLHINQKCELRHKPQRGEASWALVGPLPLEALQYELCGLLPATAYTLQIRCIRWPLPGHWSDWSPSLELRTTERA

[2] = target: T1, recombinant human G-CSF receptor (R&D …); assay: as above; conditions: both partners purified; remark: listed apart in the source

B1: recombinant human granulocyte colony-stimulating factor (USP RS Filgrastim) (ligand, UniProt P09919-2 31-204, looked up)
chain: TPLGPASSLPQSFLLKCLEQVRKIQGDGAALQEKLCATYKLCHPEELVLLGHSLGIPWAPLSSCPSQALQLAGCLSQLHSGLFLYQGLLQALEGISPELGPTLDTLQLDVADFATTIWQQMEELGMAPALQPTQGAMPAFASAFQRRAGGVLVASHLQSFLEVSYRVLRHLAQP
notes: granulocyte colony-stimulating factor, human, as filgrastim; printed size 19 kDa; The SPR methods name filgrastim; also called rhG-CSF; G-CSF; source: bought: USP RS Filgrastim, Sigma-Aldrich 1270435
[1]
  Kd: 1.4 nM
[2]
  Kd: 1.1 nM
  koff: 0.00049 s⁻¹
  kon: 300000 M⁻¹ s⁻¹
